# Measurements as given in patent publication US20250289899A1 (Genmab, published 2025).
# T1: human CD27, full length, on cells (T cells, transfected HEK293F cells, Daudi cells, NFκB-luc2/CD27 Jurkat … (human, UniProt P26842 20-240))
# T1 construct: Residues 1-19 are stated to be the signal peptide; also called TNFRSF7
# T1 sequence: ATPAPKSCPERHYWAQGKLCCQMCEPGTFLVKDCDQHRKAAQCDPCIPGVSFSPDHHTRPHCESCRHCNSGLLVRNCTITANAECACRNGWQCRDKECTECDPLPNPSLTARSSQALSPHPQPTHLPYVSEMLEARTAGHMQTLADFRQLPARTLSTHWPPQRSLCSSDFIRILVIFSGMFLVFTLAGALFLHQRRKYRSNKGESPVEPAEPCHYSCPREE
# T2: cynomolgus monkey CD27, full length, on cells (cynomolgus T cells, transfected HEK293F cells) (cynomolgus monkey (Macaca fascicularis), UniProt P26842 20-260 (human entry))
# T2 construct: also called cyno CD27
# T2 chain: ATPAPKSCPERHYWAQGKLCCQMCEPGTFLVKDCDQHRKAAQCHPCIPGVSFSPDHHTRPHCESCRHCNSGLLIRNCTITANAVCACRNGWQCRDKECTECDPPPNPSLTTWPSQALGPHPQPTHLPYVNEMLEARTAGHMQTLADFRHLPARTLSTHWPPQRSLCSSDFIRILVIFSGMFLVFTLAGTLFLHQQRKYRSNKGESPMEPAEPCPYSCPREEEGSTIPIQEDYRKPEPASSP
# B1: IgG1-CD27-A carrying F405L-L234F-L235E-D265A in the IgG Fc domain (antibody)
# heavy: QVQLMQSGSELKKPGASVKVSCRASGYTFTTYAMNWVRQAPGQGPEWMGWINTNTGNPTYAQGFTGRFVFSLDTTVTTTYLQISSLKAEDTAVYFCAREAGSFDYWGQGTLVTVSSASTKGPSVFPLAPSSKSTSGGTAALGCLVKDYFPEPVTVSWNSGALTSGVHTFPAVLQSSGLYSLSSVVTVPSSSLGTQTYICNVNHKPSNTKVDKRVEPKSCDKTHTCPPCPAPEFEGGPSVFLFPPKPKDTLMISRTPEVTCVVVAVSHEDPEVKFNWYVDGVEVHNAKTKPREEQYNSTYRVVSVLTVLHQDWLNGKEYKCKVSNKALPAPIEKTISKAKGQPREPQVYTLPPSREEMTKNQVSLTCLVKGFYPSDIAVEWESNGQPENNYKTTPPVLDSDGSFLLYSKLTVDKSRWQQGNVFSCSVMHEALHNHYTQKSLSLSPGK
# light: QSALTQPASVSGSPGQSITISCTGTSSDVYYYNYVSWYQQHPGRAPKLVIYDVSNRPSGVSNRFSGSKSGNTASLTISGLRAEDEADYYCSSYTVNRVWVFGGGTKLTVLGQPKAAPSVTLFPPSSEELQANKATLVCLISDFYPGAVTVAWKADSSPVKAGVETTTPSKQSNNKYAASSYLSLTPEQWKSHRSYSCQVTHEGSTVEKTVAPTECS
# B2: IgG1-CD27-A (wild-type IgG1 Fc) (antibody)
# heavy: not shown
# light: B1 light
# notes: also called WT IgG1-CD27-A; IgG-CD27-A
# B3: IgG1-CD27-A-E430G (antibody)
# heavy: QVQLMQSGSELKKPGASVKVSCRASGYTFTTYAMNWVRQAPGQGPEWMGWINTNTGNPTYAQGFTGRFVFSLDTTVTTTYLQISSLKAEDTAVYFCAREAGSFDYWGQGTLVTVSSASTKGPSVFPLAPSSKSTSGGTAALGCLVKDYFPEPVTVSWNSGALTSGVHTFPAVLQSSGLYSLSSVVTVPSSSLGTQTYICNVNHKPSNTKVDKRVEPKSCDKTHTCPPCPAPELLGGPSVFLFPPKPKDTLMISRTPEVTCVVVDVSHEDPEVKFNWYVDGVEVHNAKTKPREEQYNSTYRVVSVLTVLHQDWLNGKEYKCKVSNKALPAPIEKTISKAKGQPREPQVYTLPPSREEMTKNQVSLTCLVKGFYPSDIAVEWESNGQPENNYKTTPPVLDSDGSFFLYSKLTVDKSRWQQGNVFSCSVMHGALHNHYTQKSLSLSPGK
# light: B1 light
# B4: IgG1-CD27-A-E345R (antibody)
# heavy: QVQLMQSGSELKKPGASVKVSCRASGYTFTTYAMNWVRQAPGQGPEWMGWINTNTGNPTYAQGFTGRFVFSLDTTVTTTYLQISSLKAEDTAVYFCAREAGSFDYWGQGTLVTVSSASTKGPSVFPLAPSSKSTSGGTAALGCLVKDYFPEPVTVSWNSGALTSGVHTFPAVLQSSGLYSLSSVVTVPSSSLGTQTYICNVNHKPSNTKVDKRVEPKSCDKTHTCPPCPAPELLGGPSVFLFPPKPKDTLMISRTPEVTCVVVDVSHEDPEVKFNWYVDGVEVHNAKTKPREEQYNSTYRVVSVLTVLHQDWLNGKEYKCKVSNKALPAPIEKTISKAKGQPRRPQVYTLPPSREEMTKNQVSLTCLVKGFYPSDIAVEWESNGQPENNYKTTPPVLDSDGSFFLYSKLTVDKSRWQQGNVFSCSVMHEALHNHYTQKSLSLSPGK
# light: B1 light
# notes: also called IgG-CD27-A-E345R
# Key:
# [1] = target: T1, human CD27, full length, on cells (T …); test: flow cytometry on T cells in human PBMC (endogenous CD27), PE goat anti-human IgG, median MFI PE
# Description: (§1) Non-binding control antibody IgG1-b12-FEAR was used as negative control antibody. *N.B. IgG1-CD27-A, -B, -C, -D and -E carried mutations F405L-L234F-L235E-D265A in the IgG Fc domain, which are functionally irrelevant in the context of this experiment.
# (§2) Cells were seeded in 96-Wells plates (100,000 cells per well; Greiner Bio-one, Cat #650180) for sequential incubations, with washing steps in between with FACS buffer, consisting of PBS (Lonza, Cat #BE17-517Q)+1% BSA (Roche, Cat #10735086001)+0.02% Sodium Azide (Bio-World, Cat #41920044-3). The following incubations were applied: antibody concentration series (0.0001-10 μg/mL final concentration) for 30 min at 4° C.; live/dead marker FVS510 (BD, Cat #564406, diluted 1:1,000 in PBS) for 20 min at RT; PE-labeled polyclonal goat anti-human IgG (Jackson Immuno Research, Cat #109-116-098, diluted 1:500) for 30 min at 4° C.; and anti-CD3 antibody for T-cell identification (anti-human CD3: BD, Cat #555335, diluted 1:10; anti-cyno CD3: Miltenyi, Cat #130-091-998, diluted 1:10) for 30 min at 4° C. All samples were analyzed on a FACSCelesta flow cytometer (BD) and FlowJo software. Data were processed and visualized using GraphPad Prism.
# [2] = target: T1, human CD27, full length, on cells (T …); test: flow cytometry on HEK293F cells transfected with human CD27, PE goat anti-human IgG, median MFI PE
# [3] = target: T2, cynomolgus monkey CD27, full length, on …; test: flow cytometry on HEK293F cells transfected with cynomolgus CD27, PE goat anti-human IgG, median MFI PE
# Description: as §1, §2
# [4] = target: T2, cynomolgus monkey CD27, full length, on …; test: flow cytometry on T cells in cynomolgus PBMC (endogenous CD27), PE goat anti-human IgG, median MFI PE
# Description: as §1, §2
# [5] = target: T3, human C1q (from normal human serum) (human, UniProt P02745 23-245; P02746 28-253; P02747 29-245); test: flow cytometry, C1q (20% normal human serum) on human T cells pre-incubated with the antibody, FITC rabbit anti-human C1q, median MFI FITC; antibody concentration varied
# T3 construct: 20% normal human serum was the source of C1q
# Description: The P329R mutation was previously described to reduce interaction of IgG1 antibodies with C1q and FcgR (Overdijk et al, Molecular Cancer Therapeutics 2020). The effect of the P329R mutation on C1q binding of IgG1-CD27-A comprising the E345R mutation was tested in cellular C1q binding assays in vitro using human healthy donor T cells. Anti-HIV gp120 antibody IgG1-b12-F405L was used as non-binding isotype control antibody (ctrl). […] T cells (2×10⁶ cells/well) were pre-incubated in polystyrene 96-well round-bottom plates with antibody dilution series (8× five-fold dilution starting at 15 μg/mL final assay concentration) for 15 min at 37° C. to allow the antibodies to bind to the T cells. Then, cells were cooled on ice, supplemented with NHS as a source of human C1q (20% NHS final assay concentration) and incubated on ice for 45 min. Cells were subsequently incubated on ice with FITC-labeled Rabbit anti-human C1q antibody (DAKO, Cat #F0254; 20 μg/mL) for 30 min and resuspended in FACS buffer with TO-PRO-3 (ThermoFisher, Cat #T3605; 1:5,000 dilution). C1q binding was determined by flow cytometry measuring the FITC signal on live cells.
# T3 sequence (P02745 23-245 limits assumed, chain 1 of 3): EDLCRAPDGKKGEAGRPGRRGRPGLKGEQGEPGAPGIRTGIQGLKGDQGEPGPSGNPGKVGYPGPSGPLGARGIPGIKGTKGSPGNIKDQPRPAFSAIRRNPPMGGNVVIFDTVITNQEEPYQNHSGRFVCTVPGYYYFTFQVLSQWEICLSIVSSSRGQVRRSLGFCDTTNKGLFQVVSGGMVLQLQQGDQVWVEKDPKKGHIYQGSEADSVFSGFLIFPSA
# T3 sequence (P02746 28-253 limits assumed, chain 2 of 3): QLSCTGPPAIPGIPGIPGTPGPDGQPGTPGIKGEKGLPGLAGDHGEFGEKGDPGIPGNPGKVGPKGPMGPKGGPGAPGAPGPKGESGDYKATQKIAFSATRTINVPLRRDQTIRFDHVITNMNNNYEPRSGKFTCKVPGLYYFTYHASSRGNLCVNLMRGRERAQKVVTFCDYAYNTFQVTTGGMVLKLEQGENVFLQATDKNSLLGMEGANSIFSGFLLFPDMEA
# T3 sequence (P02747 29-245 limits assumed, chain 3 of 3): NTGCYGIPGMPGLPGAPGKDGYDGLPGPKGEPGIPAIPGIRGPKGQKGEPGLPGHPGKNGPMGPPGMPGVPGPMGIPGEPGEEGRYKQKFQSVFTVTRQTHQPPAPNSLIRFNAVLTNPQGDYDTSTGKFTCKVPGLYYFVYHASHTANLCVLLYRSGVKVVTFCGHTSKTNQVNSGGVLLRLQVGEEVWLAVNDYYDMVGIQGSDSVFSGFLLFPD
binder,measurement,setting,value
B1,EC50 (read off the curve),[1],~0.04 µg/mL
same,EC50 (read off the curve),[2],~0.1 µg/mL
same,EC50 (read off the curve),[3],~0.06 µg/mL
same,EC50 (read off the curve),[4],~0.04 µg/mL
B2,binding result,[5],no binding (tested: 15 µg/mL)
B3,EC50 (read off the curve),[5],~0.03 µg/mL
B4,binding result,[5],binds
